Results: US20210206856A1 (PANDION OPERATIONS, published 2021)

T1: human MAdCAM expressed on cells (human, UniProt Q13477 19-382)
T1 construct: whole, on cells; also called MADCAM1
T1 sequence (looked up): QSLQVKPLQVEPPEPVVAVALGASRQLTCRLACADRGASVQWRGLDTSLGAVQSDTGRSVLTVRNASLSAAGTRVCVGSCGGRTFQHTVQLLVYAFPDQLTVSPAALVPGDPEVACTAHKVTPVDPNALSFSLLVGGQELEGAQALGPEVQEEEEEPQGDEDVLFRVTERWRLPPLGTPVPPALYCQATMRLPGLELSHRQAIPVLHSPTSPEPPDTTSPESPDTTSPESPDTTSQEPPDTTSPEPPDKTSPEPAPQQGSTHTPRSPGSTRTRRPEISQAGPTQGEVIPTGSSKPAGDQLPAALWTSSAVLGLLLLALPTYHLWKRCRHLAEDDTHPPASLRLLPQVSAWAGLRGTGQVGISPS

T2: mouse MAdCAM expressed on cells (mouse, UniProt Q61826 22-405)
T2 construct: whole, on cells
T2 sequence (looked up): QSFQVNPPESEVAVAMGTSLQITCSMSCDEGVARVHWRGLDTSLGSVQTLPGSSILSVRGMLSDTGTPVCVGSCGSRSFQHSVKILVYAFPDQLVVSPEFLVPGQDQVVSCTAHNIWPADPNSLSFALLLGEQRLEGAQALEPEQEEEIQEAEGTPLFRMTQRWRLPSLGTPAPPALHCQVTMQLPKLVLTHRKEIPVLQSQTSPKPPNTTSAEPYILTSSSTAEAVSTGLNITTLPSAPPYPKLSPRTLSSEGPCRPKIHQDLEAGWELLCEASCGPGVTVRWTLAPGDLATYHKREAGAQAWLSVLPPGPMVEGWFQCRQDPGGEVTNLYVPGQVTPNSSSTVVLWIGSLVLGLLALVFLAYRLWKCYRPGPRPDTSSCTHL


Experiments:
[1] = target: T1, human MAdCAM expressed on cells; experiment: cell binding
[2] = target: T2, mouse MAdCAM expressed on cells; experiment: cell binding

Row | binding result [1] | binding result [2] | Binder
1 | binds | no binding | MAdCAM Antibody Table 2 Clone 64 (antibody, human IgG1, V domains shown) VH: EVQLLESGGGLVQPGGSLRLSCAASGFTFSNSDMNWVRQAPGKGLEWVAHIWNDGSQKYYADSVKGRFTISRDNSKNTLYLQMNSLRAEDTAVYYCARDRTDPGYSSAMDVWGQGTTVTVSS VL: DIQMTQSPSSLSASVGDRVTITCRASQDIRNYLGWYQQKPGKAPKLLIYDASSLETGVPSRFSGSGSGTDFTLTISSLQPEDFATYYCQQATSLPLTFGGGTKVEIK
2 | binds | no binding | MAdCAM Antibody Table 2 Clone 73 (antibody, human IgG1, V domains shown) VH: QVQLVQSGAEVKKPGASVKVSCKASGYTFTSNYVHWVRQAPGQGLEWMGRINPHSGDTSYAQKFQGRVTMTRDTSTSTVYMELSSLRSEDTAVYYCARAGQLWSDWYFDLWGRGTLVTVSS VL: DIQMTQSPSSLSASVGDRVTITCQASQDIRNYLNWYQQKPGKAPKLLIYAATALRTGVPSRFSGSGSGTDFTLTISSLQPEDFATYYCQQSYSHPLTFGQGTKVEIK
3 | binds | no binding | MAdCAM Antibody Table 2 Clone 80 (antibody, human IgG1, V domains shown) VH: EVQLLESGGGLVQPGGSLRLSCAASGFTFDDYAMHWVRQAPGKGLEWVSAISGSGGSTYYADSVKGRFTISRDNSKNTLYLQMNSLRAEDTAVYYCAKDLGVVVPAALDYWGQGTTVTVSS VL: DIQMTQSPSSLSASVGDRVTITCQASQDISNHLNWYQQKPGKAPKLLIYDASNLEAGVPSRFSGSGSGTDFTLTISSLQPEDFATYYCQQSYSTPLTFGGGTKVEIK
4 | binds | no binding | MAdCAM Antibody Table 2 Clone 61 (antibody, human IgG1, V domains shown) VH: QVQLVQSGAEVKKPGASVKVSCKASGDTFTGYYIHWVRQAPGQGLEWMGWINPNSGGTNYAQKFQGRVTMTRDTSTSTVYMELSSLRSEDTAVYYCARSGLWLGSYYGMDVWGQGTLVTVSS VL: DIQMTQSPSSLSASVGDRVTITCRASQTISIWLAWYQQKPGKAPKLLIYDASTLQSGVPSRFSGSGSGTDFTLTISSLQPEDFATYYCQQYSSYPLTFGQGTKVEIK
5 | binds | no binding | MAdCAM Antibody Table 2 Clone 67 (antibody, human IgG1, V domains shown) VH: QVQLVQSGAEVKKPGASVKVSCKASGYTFTGYYMHWVRQAPGQGLEWMGMIYPRDGSTSYAQKFQGRVTMTRDTSTSTVYMELSSLRSEDTAVYYCAMTGWGYGMDVWGKGTTVTVSS VL: DIQMTQSPSSLSASVGDRVTITCRASQGINNYLAWYQQKPGKAPKLLIYDASTLQSGVPSRFSGSGSGTDFTLTISSLQPEDFATYYCQQSYSAPPTFGQGTKLEIK
6 | binds | binds | MAdCAM Antibody Table 2 Clone 75 (antibody, human IgG1, V domains shown) VH: EVQLLESGGGLVQPGGSLRLSCAASGFTFSDFWMHWVRQAPGKGLEWISYISGDSGYTNYADSVKGRFTISRDNSKNTLYLQMNSLRAEDTAVYYCARDRPYYYYMDVWGKGTTVTVSS VL: DIQMTQSPSSLSASVGDRVTITCRASQSVSRSLAWYQQKPGKAPKLLIYAASSLQSGVPSRFSGSGSGTDFTLTISSLQPEDFATYYCQQYKSYPVTFGQGTKVEIK
7 | binds | no binding | MAdCAM Antibody Table 2 Clone 70 (antibody, human IgG1, V domains shown) VH: QVQLVQSGAEVKKPGASVKVSCKASGYPFTDYYMHWVRQAPGQGLEWMGWIKPNSGDTEYAQKFQGRVTMTRDTSTSTVYMELSSLRSEDTAVYYCARDRFVGKPDYYYYGMDVWGQGTMVTVSS VL: DIQMTQSPSSLSASVGDRVTITCRASQSISVWLAWYQQKPGKAPKLLIYAASSLQSGVPSRFSGSGSGTDFTLTISSLQPEDFATYYCQQSYDTPYTFGQGTKLEIK
8 | binds | binds | MAdCAM Antibody Table 2 Clone 78 (antibody, V domains shown) VH: QVQLVQSGAEVKKPGSSVKVSCKASGGTFSSYAISWVRQAPGQGLEWMGWMEPHTGNTRYAQKFQGRVTITADESTSTAYMELSSLRSEDTAVYYCAKGGFSWFDPWGQGTLVTVSS VL: not shown
9 | binds | no binding | MAdCAM Antibody Table 2 Clone 66 (antibody, human IgG1, V domains shown) VH: QVQLVQSGAEVKKPGASVKVSCKASGYTFTGHYMHWVRQAPGQGLEWMGIINPSGGSTSYAQKFQGRVTMTRDTSTSTVYMELSSLRSEDTAVYYCARDGAWFGEEYYYGMDVWGQGTTVTVSS VL: DIQMTQSPSSLSASVGDRVTITCRASQGISNWLAWYQQKPGKAPKLLIYDASNLETGVPSRFSGSGSGTDFTLTISSLQPEDFATYYCQQYYSFPLYTFGQGTKVEIK
10 | binds | no binding | MAdCAM Antibody Table 2 Clone 69 (antibody, human IgG1, V domains shown) VH: QVQLVQSGAEVKKPGASVKVSCKASGYTFTSYYMHWVRQAPGQGLEWMGIIDPSGGSTSYAQKFQGRVTMTRDTSTSTVYMELSSLRSEDTAVYYCAREEWSSGGVGYFDYWGQGTLVTVSS VL: DIQMTQSPSSLSASVGDRVTITCRASQGISSYLAWYQQKPGKAPKLLIYATSSLQTGVPSRFSGSGSGTDFTLTISSLQPEDFATYYCQQTYSIPITFGQGTRLEIK
11 | binds | no binding | MAdCAM Antibody Table 2 Clone 71 (antibody, human IgG1, V domains shown) VH: QVQLVQSGAEVKKPGASVKVSCKASGYTFTSYYMHWVRQAPGQGLEWMGIINPSGGSTSYAQKFQGRVTMTRDTSTSTVYMELSSLRSEDTAVYYCARDSVAGTGGRYYGMDVWGQGTLVTVSS VL: DIQMTQSPSSLSASVGDRVTITCRASQGISNYFAWYQQKPGKAPKLLIYAASSLQGGVPSRFSGSGSGTDFTLTISSLQPEDFATYYCQQSYSLPYTFGQGTKLEIK
12 | binds | no binding | MAdCAM Antibody Table 2 Clone 72 (antibody, human IgG1, V domains shown) VH: QVQLVQSGAEVKKPGASVKVSCKASGYTFTSYYMHWVRQAPGQGLEWMGVINPIGGTTTYAQKFQGRVTMTRDTSTSTVYMELSSLRSEDTAVYYCASGAPSYYYYGMDVWGQGTLVTVSS VL: DIQMTQSPSSLSASVGDRVTITCRASQSISSYLNWYQQKPGKAPKLLIYGTSYLATGVPSRFSGSGSGTDFTLTISSLQPEDFATYYCQQSYSTPLTFGQGTKVEIK
13 | binds | binds | MAdCAM Antibody Table 2 Clone 77 (antibody, human IgG1, V domains shown) VH: EVQLLESGGGLVQPGGSLRLSCAASEFTFSNAWMSWVRQAPGKGLEWVASISSTSAYIDYADSVKGRFTISRDNSKNTLYLQMNSLRAEDTAVYYCAREVVGATTFDYWGQGTLVTVSS VL: DIQMTQSPSSLSASVGDRVTITCRASQSISTWLAWYQQKPGKAPKLLIYAASSLQSGVPSRFSGSGSGTDFTLTISSLQPEDFATYYCQQANAFPPTFGQGTRLEIK
14 | binds | binds | MAdCAM Antibody Table 2 Clone 79 (antibody, human IgG1, V domains shown) VH: EVQLLESGGGLVKPGGSLRLSCAASGFTFDDYAMHWVRQAPGKGLEWVASITSSSAFIDYAASVKGRFTISRDDSKNTLYLQMNSLKTEDTAVYYCARERVDWNSYFDLWGRGTLVTVSS VL: EIVMTQSPATLSVSPGERATLSCRASQGISNSYLAWYQQKPGQAPRLLIYGASTRATGIPARFSGSGSGTEFTLTISSLQSEDFAVYYCQQYYTYPPTFGPGTKVDIK
15 | binds | no binding | MAdCAM Antibody Table 2 Clone 63 (antibody, human IgG1, V domains shown) VH: EVQLLESGGGLVQPGGSLRLSCAASGFTFNNYGMNWVRQAPGKGLEWVSRINSDGSSTSYADSVKGRFTISRDNSKNTLYLQMNSLRAEDTAVYYCARGAYYYYYMDVWGQGTLVTVSS VL: EIVMTQSPATLSVSPGERATLSCRASQSVSGSYLAWYQQKPGQAPRLLIYATSSRASGIPARFSGSGSGTEFTLTISSLQSEDFAVYYCQQYYSGLTFGQGTKVEIK
16 | binds | no binding | MAdCAM Antibody Table 2 Clone 62 (antibody, human IgG1, V domains shown) VH: QVQLVQSGAEVKKPGASVKVSCKASGYTFTSYDINWVRQAPGQGLEWMGWINPNSGTTGYAQKFQGRVTMTRDTSTSTVYMELSSLRSEDTAVYYCARSPYYYYGMDVWGQGTTVTVSS VL: DIQMTQSPSSLSASVGDRVTITCRASHFISRWVAWYQQKPGKAPKLLIYAASTLQSGVPSRFSGSGSGTDFTLTISSLQPEDFATYYCQQSYSGISFGPGTKVDIK
17 | binds | no binding | MAdCAM Antibody Table 2 Clone 68 (antibody, human IgG1, V domains shown) VH: EVQLLESGGGLVQPGGSLRLSCAASGFTFGDYAMSWVRQAPGKGLEWVAVVSYDGTNKYYADSVKGRFTISRDNSKNTLYLQMNSLRAEDTAVYYCAKDICSSTSCYFDLWGRGTLVTVSS VL: DIQMTQSPSSLSASVGDRVTITCRASQNINNYVNWYQQKPGKAPKLLIYDASNLETGVPSRFSGSGSGTDFTLTISSLQPEDFATYYCQQANSFPPTFGQGTRLEIK
18 | binds | binds | MAdCAM Antibody Table 2 Clone 76 (antibody, human IgG1, V domains shown) VH: EVQLLESGGGLVQPGGSLRLSCAASGFTFDDYTMHWVRQAPGKGLEWVSDISGSGGSTYYADSVKGRFTISRDNSKNTLYLQMNSLRAEDTAVYYCAKDVVVAGTPLHFDYWGQGTLVTVSS VL: DIQMTQSPSSLSASVGDRVTITCQASQDISNYLNWYQQKPGKAPKLLIYAASYLQSGVPSRFSGSGSGTDFTLTISSLQPEDFATYYCQQAHNYPITFGQGTRLEIK
